# Measurements as given in patent US20220380475A1 (SORRISO PHARMACEUTICALS, published 2022).
# Residue numbers refer to the chain shown, from its start. Names and notes keep the numbering of the source. Like-named read-outs stand apart in the source and are kept apart here.
# T1: membrane-bound human IL-6R on TF-1 cells (human, UniProt P08887 20-468)
# T1 sequence: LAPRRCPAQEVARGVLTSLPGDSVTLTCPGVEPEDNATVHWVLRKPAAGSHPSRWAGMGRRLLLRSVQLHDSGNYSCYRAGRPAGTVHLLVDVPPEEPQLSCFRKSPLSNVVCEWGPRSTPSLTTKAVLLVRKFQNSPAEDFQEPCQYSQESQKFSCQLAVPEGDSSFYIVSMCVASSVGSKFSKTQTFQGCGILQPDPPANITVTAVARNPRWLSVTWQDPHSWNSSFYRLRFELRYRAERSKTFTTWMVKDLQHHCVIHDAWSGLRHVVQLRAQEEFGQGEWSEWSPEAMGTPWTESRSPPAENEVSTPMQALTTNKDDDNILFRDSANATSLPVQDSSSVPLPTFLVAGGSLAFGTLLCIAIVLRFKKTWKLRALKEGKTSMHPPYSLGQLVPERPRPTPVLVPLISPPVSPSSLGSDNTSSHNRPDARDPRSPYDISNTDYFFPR
# T2: recombinant soluble human IL-6R (human, UniProt P08887 20-365)
# T2 sequence: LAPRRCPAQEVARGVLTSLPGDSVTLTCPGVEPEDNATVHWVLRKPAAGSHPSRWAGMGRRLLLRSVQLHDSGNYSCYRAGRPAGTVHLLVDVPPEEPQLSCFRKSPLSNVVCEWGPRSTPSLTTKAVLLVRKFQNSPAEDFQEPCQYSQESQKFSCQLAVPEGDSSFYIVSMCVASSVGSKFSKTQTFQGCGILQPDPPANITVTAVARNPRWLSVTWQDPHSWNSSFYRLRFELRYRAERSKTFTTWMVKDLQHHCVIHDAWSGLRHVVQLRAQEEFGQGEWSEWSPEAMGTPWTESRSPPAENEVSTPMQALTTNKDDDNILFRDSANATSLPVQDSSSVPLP
# T3: cynomolgus monkey soluble IL-6R (from cynomolgus monkey serum) (cynomolgus monkey, UniProt P08887 20-365 (human entry))
# T3 construct: Natural soluble IL-6R present in diluted normal cynomolgus monkey serum; also called cyno IL6R; cynomolgous sIL-6R
# T3 chain: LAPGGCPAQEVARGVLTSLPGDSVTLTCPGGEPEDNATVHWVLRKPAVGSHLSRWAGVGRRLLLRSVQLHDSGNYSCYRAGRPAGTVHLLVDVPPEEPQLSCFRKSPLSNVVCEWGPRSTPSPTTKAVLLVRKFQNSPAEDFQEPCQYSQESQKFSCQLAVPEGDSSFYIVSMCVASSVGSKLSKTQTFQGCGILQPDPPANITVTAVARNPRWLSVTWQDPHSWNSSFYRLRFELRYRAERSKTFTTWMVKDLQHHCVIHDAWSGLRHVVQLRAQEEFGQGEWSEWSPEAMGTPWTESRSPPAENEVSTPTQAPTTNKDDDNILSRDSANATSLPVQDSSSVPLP
# B1: 7F6 (VHH)
# VHH: EVQLVESGGGLVQAGGSTRLTCLASGSISSINVIGWYRQAPGKQRELVAMIGRGEGANYGDFAKGRFTISRDNSKNTVYLQMNSLKPEDTAVYYCYADYEDRDSPFNGSWGQGTQVTVSS
# notes: also called VIL-7F6; 'Wild type' 7F6; not shown: C-terminal Flag and 6xHis tags from vector pMEK222
# B2: 21E6 (VHH)
# VHH: B1 VHH with Q13L, F106L
# notes: Family-expansion clone related to 7F6 (Q13L and F106L); Expressed from a phagemid vector and purified
# B3: ID-75V (VHH)
# VHH: DVQLVESGGGLVQAGGSTRLTCKASGSISNINSINVMAWYRQAPGKQRELVAIIGKGGGTNYADFVKGRFTISRDAAKNTVNLQMNSLKPEDTAVYYCYADYEDHDSPFNASWGQGTQVTVSS
# notes: also called 5G9 + E1D, F29S, R105H
# B4: ID-112V (VHH)
# VHH: B3 VHH with D1E, Q47G, K89R
# notes: E. coli-produced cis/trans potent 5G9 derivative; also called 5G9 + F29S, Q47G, K89R, R105H; not shown: C-terminal FLAG-6xHis
# B5: ID-123V (VHH)
# VHH: B3 VHH with D1E, Q47G, N82Y, K89R, F109H
# notes: E. coli-produced trans-selective 5G9 derivative; E. coli version of ID-142V (lacks E1D); also called 5G9 + F29S, Q47G, N82Y, K89R, R105H, F109H; not shown: C-terminal FLAG-6xHis
# B6: ID-114V (VHH)
# VHH: B3 VHH with D1E, V81L, N82Y
# notes: E. coli-produced cis/trans potent 5G9 derivative; also called 5G9 + F29S, V81L, N82Y, R105H; not shown: C-terminal FLAG-6xHis
# B7: tocilizumab (antibody, part only; not given: constant regions, V domains shown, not shown: another chain or arm of the molecule)
# VH: QVQLQESGPGLVRPSQTLSLTCTVSGYSITSDHAWSWVRQPPGRGLEWIGYISYSGITTYNPSLKSRVTMLRDTSKNQFSLRLSSVTAADTAVYYCARSLARTTAMDYWGQGSLVTVSS
# VL: DIQMTQSPSSLSASVGDRVTITCRASQDISSYLNWYQQKPGKAPKLLIYYTSRLHSGVPSRFSGSGSGTDFTFTISSLQPEDIATYYCQQGNTLPYTFGQGTKVEIK
# Experiments:
# [1] = target: cynomolgus monkey soluble IL-6R (from cynomolgus monkey serum) (cynomolgus monkey); test: ratio of gp130 ELISA IC50s on human and cynomolgus sIL-6R
# [2] = target: T1, membrane-bound human IL-6R on TF-1 cells; test: cell-based or functional assay
# [3] = target: T2, recombinant soluble human IL-6R; test: gp130 ELISA (competition), parallel human arm: 10 ng/mL human IL-6R, 50 ng/mL human IL-6
# Description: (§1) The standard anti-cynomolgus monkey IL-6R gp130 ELISA assay detailed under ‘Potency, neutralisation and inhibition’ above was performed to assay the ICVDs in parallel for their ability to neutralise sIL6R in cynomolgous monkey serum and recombinant purified human sIL6R. Briefly, Maxisorp 96-well plates were coated overnight with 50 μl/well 1 μg/ml gp130 then blocked. ICVDs were serially diluted and mixed 1:1 with 200 ng/ml recombinant human IL-6, then 1:1 with either 20 ng/ml recombinant human sIL-6R or a 5-fold dilution of cynomolgus monkey serum and incubated for 1 hour to allow binding before adding to the gp130-coated plates. Bound cynomolgus monkey IL-6R was detected with 50 μl/well either 0.25 μg/ml (for human IL-6R) or 0.5 μg/ml (for monkey serum) BAF227 and then 50 μl/well 1/1000 Extravidin-HRP and the level of neutralisation by the ICVD of IL-6R binding to IL-6/gp130 was determined
# [4] = target: cynomolgus monkey soluble IL-6R (from cynomolgus monkey serum) (cynomolgus monkey); test: anti-cynomolgus IL-6R gp130 ELISA (competition): 10x diluted cynomolgus serum, 50 ng/mL human IL-6, coated human gp130
# [5] = target: T1, membrane-bound human IL-6R on TF-1 cells; test: cell-based or functional assay; remark: listed apart in the source
# [6] = target: T1, membrane-bound human IL-6R on TF-1 cells; test: cell-based or functional assay; remark: listed apart in the source
# [7] = target: T3, cynomolgus monkey soluble IL-6R (from …); test: anti-cynomolgus IL-6R gp130 ELISA (competition): 10x diluted cynomolgus serum, 50 ng/mL human IL-6, coated human gp130
# Description: as §1
# [8] = target: T2, recombinant soluble human IL-6R; test: gp130 ELISA (competition), second assay, 10 min pre-incubation; 20 ng/mL IL6R, 100 ng/mL IL6
# Description: (§2) Briefly, Maxisorp 96-well plates were coated overnight with 50 μl/well 0.5 μg/ml gp130 then blocked. ICVDs were serially diluted and mixed 1:1 with 100 ng/ml recombinant human IL-6 then 1:1 with 40 ng/ml recombinant human sIL-6R, and incubated for 1 hour to allow binding before adding to the gp130-coated plates. Bound IL-6R was detected with 50 μl/well 0.250 μg/ml BAF227 and then 50 μl/well 1/1000 diluted Extravidin-HRP and the level of neutralisation by the ICVD of IL-6R binding to IL-6/gp130 was determined.
# (§3) A separate assay was performed on 21E6 and 7F6 using the same protocol as above with the exception that the ICVD/IL-6R/IL-6 where only incubated with shaking for 10 min before being added to the assay plates.
# [9] = target: T2, recombinant soluble human IL-6R; test: standard gp130 ELISA (competition); column 'Potency'
# [10] = target: T3, cynomolgus monkey soluble IL-6R (from …); test: ratio of gp130 ELISA IC50s on human and cynomolgus sIL-6R
# Description: as §1
# [11] = target: T2, recombinant soluble human IL-6R; test: gp130 ELISA (competition): inhibition of human sIL-6R/IL-6 complex binding to coated gp130; 20 ng/mL IL6R, 100 ng/mL IL6
# Description: as §2
# Dose response curves were obtained (dose response curves of particular ICVDs illustrated in FIG. 1). […] This was confirmed with curve-fitting software (Graphpad Prism), which fitted 4 parameter curves to the data and calculated the IC50s (Table 4.1, below).
# [12] = target: T2, recombinant soluble human IL-6R; test: gp130 ELISA (competition), second assay; reference 7F6
# Description: as §2, §3
# [13] = target: T2, recombinant soluble human IL-6R; test: standard gp130 ELISA (competition)
# [14] = target: T1, membrane-bound human IL-6R on TF-1 cells; test: cell-based or functional assay; remark: listed apart in the source
# [15] = target: T2, recombinant soluble human IL-6R; test: cell-based or functional assay
# [16] = target: T2, recombinant soluble human IL-6R; test: Biacore (SPR): ICVD fixed to the sensor, soluble human IL-6R flowed over
# Text: The binding kinetics of the trans-selective ID-123V (E. coli produced version of ID-142V) and the cis/trans potent ID-112V (E. coli produced version of ID-144V, but for ID-112V lacking N82Y relative to ID-144V) were compared against tocilizumab in a Biacore study. The ICVDs were fixed to the Biacore sensor plate and soluble human IL-6R was flowed over the plate to detect binding.
# [17] = target: T2, recombinant soluble human IL-6R; test: standard gp130 ELISA (competition), Experiment 1; 10 ng/mL IL-6R, 50 ng/mL IL-6
# Description: (§4) The inhibitory potency and efficacy (maximal inhibition) of the E. coli-produced 5G9 derivatives were confirmed in vitro in the gp130 ELISA, TF-1 cell and M1 cell functional assays measuring responses mediated via human IL-6R. The gp130 assays follow the standard protocol with a final assay concentration of 10 ng/mL IL-6R and 50 ng/mL IL-6.
# [18] = target: T1, membrane-bound human IL-6R on TF-1 cells; test: cell-based or functional assay; remark: listed apart in the source
# [19] = target: T2, recombinant soluble human IL-6R; test: standard gp130 ELISA (competition), Experiment 2; 10 ng/mL IL-6R, 50 ng/mL IL-6
# Description: as §4
# [20] = target: T1, membrane-bound human IL-6R on TF-1 cells; test: cell-based or functional assay; remark: listed apart in the source
# [21] = target: recombinant soluble human IL-6R (human) (UniProt P08887); test: Biacore (SPR): binder fixed to the sensor, soluble human IL-6R flowed over
# [22] = target: recombinant soluble human IL-6R (human) (UniProt P08887); test: gp130 ELISA (competition): inhibition of human sIL-6R/IL-6 complex binding to coated gp130; 20 ng/mL IL6R, 100 ng/mL IL6
# [23] = target: recombinant soluble human IL-6R (human) (UniProt P08887); test: cell-based or functional assay
# [24] = target: membrane-bound human IL-6R on TF-1 cells (human) (UniProt P08887); test: cell-based or functional assay
# [25] = target: membrane-bound human IL-6R on TF-1 cells (human) (UniProt P08887); test: cell-based or functional assay; remark: listed apart in the source
# [26] = target: recombinant soluble human IL-6R (human) (UniProt P08887); test: standard gp130 ELISA (competition), Experiment 2; 10 ng/mL IL-6R, 50 ng/mL IL-6
molecule,measurement,setting,value
tocilizumab Fab,Ratio of human IC50 to cynomolgus IC50,[1],0.6
same,IC50 of inhibition of IL-6-induced TF-1 cell proliferation,[2],15.9 nM
same,IC50,[3],0.704 nM
same,IC50,[4],1.13 nM
B1,"IC50 in TF1 assay (separate assay, raised background)",[5],3 nM
same,IC50 of inhibition of IL-6-induced TF-1 cell proliferation,[6],0.5 nM
same,IC50,[7],0.342 nM
same,IC50,[8],0.16 nM
same,IC50,[9],0.15 nM
same,IC50,[3],0.424 nM
same,Ratio Cyno IC50/human IC50 (title: human IC50 divided by cynomolgous IC50),[10],1.2
same,IC50,[11],0.11 nM
B2,"IC50 in TF1 assay (separate assay, raised background)",[5],11 nM
same,fold less potent than 7F6,[12],~2 fold
same,IC50,[8],0.3 nM
B3,binding result,[13],binds
B4,TF-1 cell assay EC50 (5 ng/ml IL-6),[14],0.18 nM
same,"M1 cellular assay EC50 (20 ng/ml IL-6R, 100 ng/ml IL-6)",[15],0.55 nM
same,Kd,[16],0.04 nM
same,EC50,[17],0.15 nM
B5,"M1 cellular assay EC50 (20 ng/ml IL-6R, 100 ng/ml IL-6)",[15],4.2 nM
same,TF-1 cell assay EC50 (5 ng/ml IL-6),[18],4.5 nM
same,Kd,[16],1.1 nM
same,EC50,[19],0.498 nM
B6,TF-1 cell assay EC50 (5 ng/ml IL-6),[20],0.29 nM
same,"M1 cellular assay EC50 (20 ng/ml IL-6R, 100 ng/ml IL-6)",[15],0.52 nM
same,EC50,[17],0.138 nM
B7,Kd,[21],0.39 nM
same,IC50,[22],0.97 nM
same,"M1 cellular assay EC50 (20 ng/ml IL-6R, 100 ng/ml IL-6)",[23],5.36 nM
same,TF-1 cell assay EC50 (5 ng/ml IL-6),[24],0.69 nM
same,Potency in the TF-1 assay,[24]; scale: not given,0.69
same,TF-1 cell assay EC50 (5 ng/ml IL-6),[25],1.12 nM
same,EC50,[26],1.83 nM
